# Source: patent US8975044B2, “Polynucleotides encoding for frizzled-binding agents and uses thereof” (OncoMed Pharmaceuticals, Inc., priority 2008, dated 2015)
# Legend:
# [1] = biological target: T1, FZD2 (Homo sapiens, UniProt Q14332); test: FACS binding to FZD-transfected HEK293 cells; settings: FACS MFI dose-response, full-length FZD in HEK293, 20 μg/ml 4-fold dilutions
# T1 construct: plasmid DNA expressing full-length FZD1, 2, 5, 7 or 8; expressed in transfected cells; host or cells: HEK293
# T1 sequence (Q14332 24-565): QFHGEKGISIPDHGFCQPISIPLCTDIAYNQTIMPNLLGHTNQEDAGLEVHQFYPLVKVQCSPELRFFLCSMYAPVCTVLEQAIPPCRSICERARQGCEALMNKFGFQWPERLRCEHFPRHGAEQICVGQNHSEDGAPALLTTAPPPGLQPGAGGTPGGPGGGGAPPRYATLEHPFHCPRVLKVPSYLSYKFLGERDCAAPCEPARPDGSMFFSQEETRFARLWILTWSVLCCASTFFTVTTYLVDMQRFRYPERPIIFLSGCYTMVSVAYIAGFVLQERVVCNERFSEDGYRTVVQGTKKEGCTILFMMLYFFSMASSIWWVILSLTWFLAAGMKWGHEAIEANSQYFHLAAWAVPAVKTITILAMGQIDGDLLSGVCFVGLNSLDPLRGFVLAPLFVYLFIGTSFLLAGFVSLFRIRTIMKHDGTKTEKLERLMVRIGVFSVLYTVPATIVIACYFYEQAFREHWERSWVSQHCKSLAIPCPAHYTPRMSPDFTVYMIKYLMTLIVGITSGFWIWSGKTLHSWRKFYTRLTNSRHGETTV
# Method: (§1) To measure antibody binding to FZD by flow cytometry HEK293 cells were co-transfected with FZD expression vectors and the transfection marker GFP. Twenty-four to forty-eight hours post-transfection, cells were collected in suspension and incubated on ice with anti-FZD antibodies (10 μg/ml unless otherwise indicated) or control IgG to detect background antibody binding. The cells were washed and primary antibodies detected with Fc domain-specific secondary antibodies conjugated to a fluorescent chromophore (e.g. phycoerythrin conjugated anti-human IgG). Labeled cells were then analyzed by flow cytometry to identify anti-FZD antibodies that specifically recognize cell surface expression of FZD protein. Monoclonal antibodies 18R5 and 18R8 recognized FZD on transfected cells. As shown in FIG. 1 and FIG. 2, both 18R8 and 18R5 bind to multiple FZD including FZD1, FZD2, FZD5, FZD7, and FZD8. […]
# (§2) HEK293 cells were co-transfected with a plasmid DNA expressing full-length FZD1, 2, 5, 7 or 8 along with another plasmid expressing the reporter gene GFP used as a transfection marker. […] The cells were washed and bound anti-Fzd antibodies were detected with a secondary anti-human antibody conjugated to a fluorescent chromophore. Labeled cells were then detected and counted by FACS. The FACS data generated were expressed in Mean Fluorescence Intensity (MFI) units. […]
# [2] = biological target: T2, FZD1 (Homo sapiens, UniProt Q9UP38); test: FACS binding to FZD-transfected HEK293 cells; settings: FACS MFI dose-response, full-length FZD in HEK293, 20 μg/ml 4-fold dilutions
# T2 construct: plasmid DNA expressing full-length FZD1, 2, 5, 7 or 8; expressed in transfected cells; host or cells: HEK293
# T2 sequence (Q9UP38 70-647): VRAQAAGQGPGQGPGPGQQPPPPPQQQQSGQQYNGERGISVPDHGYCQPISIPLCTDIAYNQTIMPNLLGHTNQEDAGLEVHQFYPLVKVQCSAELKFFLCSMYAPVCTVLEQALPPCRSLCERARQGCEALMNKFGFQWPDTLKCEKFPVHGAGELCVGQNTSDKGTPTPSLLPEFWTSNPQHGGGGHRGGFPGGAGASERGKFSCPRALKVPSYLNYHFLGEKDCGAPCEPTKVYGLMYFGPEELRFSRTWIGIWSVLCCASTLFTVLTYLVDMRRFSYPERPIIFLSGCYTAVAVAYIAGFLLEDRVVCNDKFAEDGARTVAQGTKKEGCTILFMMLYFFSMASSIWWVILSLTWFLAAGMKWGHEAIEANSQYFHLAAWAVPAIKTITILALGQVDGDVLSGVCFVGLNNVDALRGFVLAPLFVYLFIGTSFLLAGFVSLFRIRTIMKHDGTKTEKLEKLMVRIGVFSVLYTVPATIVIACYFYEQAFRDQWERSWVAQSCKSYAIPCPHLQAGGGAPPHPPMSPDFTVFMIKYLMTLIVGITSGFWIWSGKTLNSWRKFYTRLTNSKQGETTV
# Method: as §1, §2
# [3] = biological target: T3, FZD7 (Homo sapiens, UniProt O75084); test: Biacore affinity to recombinant Fzd Fc protein; type: binding; parameters: Fc (C); settings: IgG antibody; Fzd Fc immobilized on CM5 Biacore chip
# Method: The KDs of 18R8 and 18R5 antibodies were determined using the Biacore 2000 system from Biacore Lifescience (GE Healthcare). Specifically, purified anti-Fzd7 antibodies were serially diluted in 2-fold increments from 100 to 0.78 nM in HBS-P (0.01 M HEPES pH 7.4, 0.15 M NaCl, 0.005% v/v Surfactant P20). Each dilution was tested against recombinant Fzd Fc proteins immobilized onto a CM5 Biacore chip. The association and dissociation rates were measured and KD values determined using the Biaevaluation software program (Table 5, below).
# [4] = biological target: T3, FZD7; test: FACS binding to FZD-transfected HEK293 cells; parameters: plasmid DNA expressing full-length FZD1, 2, 5, 7 or 8; expressed in transfected cells; host or cells: HEK293; settings: FACS MFI dose-response, full-length FZD in HEK293, 20 μg/ml 4-fold dilutions
# Method: as §1, §2
# [5] = tested on: OMP-Pn4 tumors; test: Limiting dilution assay of cancer stem cell frequency in treated OMP-Pn4 tumors; type: in vivo, NOD/SCID mice; settings: tumors after 41 days treatment; 30-810 cells re-injected, 75 days; L-Calc
# Method: Control and treated tumors from the OMP-Pn4 xenograft study described above (Example 7) were harvested at the end of 41 days treatment. The tumors were processed and dissociated into single cells. Tumor cells were then incubated with biotinylated mouse antibodies (α-mouse CD45-biotin 1:200 dilution and rat α-mouse H2 Kd-biotin 1:100 dilution, BioLegend, San Diego, Calif.) on ice for 30 min followed by addition of streptavidin-labeled magnetic beads (Invitrogen, Carlsbad, Calif.) to remove mouse cells. The remaining human cells in the suspension were collected, counted and diluted to appropriate cell doses (30, 90, 270 and 810 cells), mixed in the mixture of 1:1 (v/v) FACS buffer and Matrigel and injected subcutaneously in NOD/SCID mice (10 mice per cell dose per treatment group). Each dot in FIG. 40 represents the tumor volume of an individual mouse. The percentage of mice with detectable tumors was determined in all groups injected with anti-FZD antibody treated tumor cells and compared to the percentage of mice with detectable tumors in the controls. For example, the number of mice injected with 810 control-treated tumor cells that have detectable tumors was determined and compared to the number of mice injected with 810 FZD-antibody treated tumor cells that have detectable tumors. […]
# [6] = tested on: OMP-C28 tumors; test: Flow cytometry of ESA and CD44 on cells of treated OMP-C28 tumors; type: in vivo, NOD/SCID mice; settings: tumors harvested day 48; control antibody 64%
# Method: Control and treated tumors from the OMP-C28 xenograft study described above (Example 7) were harvested at the end of the study (day 48). The tumors were processed and dissociated into single cells. Tumor cells were then incubated with biotinylated mouse antibodies (α-mouse CD45-biotin 1:200 dilution and rat α-mouse H2 Kd-biotin 1:100 dilution, BioLegend, San Diego, Calif.) on ice for 30 min followed by addition of streptavidin-labeled magnetic beads (Invitrogen, Carlsbad, Calif.) to remove mouse cells with the aid of a magnet.
# For analysis of cell surface markers, the single tumor cell suspension was stained with anti-ESA (Biomeda) and anti-CD44 (BD Biosciences) antibodies which were directly conjugated to fluorochromes. Dead cells were excluded by using the viability dye DAPI. Flow cytometry was performed using a FACS Aria (Becton Dickinson). Side scatter and forward scatter profiles were used to eliminate cell clumps.
compound,measurement,setting,value
"18R5: human anti-FZD antibody; VH SEQ ID NO:10 (as 18R8), VL SEQ ID NO:14; binds FZD1, 2, 5, 7, 8",EC50,[1],0.62 nM
same,EC50,[2],0.41 nM
same,Kd,[3],1.8 nM
same,EC50,[4],0.58 nM
"Nc1ccn([C@@H]2O[C@H](CO)[C@@H](O)C2(F)F)c(=O)n1 [gemcitabine, reference compound]",cancer stem cell frequency,[5],had no effect
"CCc1c2c(nc3ccc(OC(=O)N4CCC(N5CCCCC5)CC4)cc13)-c1cc3c(c(=O)n1C2)COC(=O)[C@]3(O)CC [irinotecan, reference compound]",bulk tumor population expressing both ESA and CD44 at high levels (double positive),[6],55%
